According to PMC5286830, “Prokaryotic ubiquitin-like protein remains intrinsically disordered when covalently attached to proteasomal target proteins” (BMC Structural Biology, 2017):
pKd: −log10 of the molar value.

Target: MtbDop-F (Mycobacterium tuberculosis deamidase of Pup / depupylase, randomly fluorescein-labeled) (Mycobacterium tuberculosis) (UniProt P9WNU9)
Assay: MST; Monolith NT.115, starting temperature 19 C; 30 nM MtbDop-F with serial 1:1 dilutions of MtbPup or MtbPup ~ FabD-3KR from 25 uM to 15 nM; 50 mM HEPES-NaOH pH 7.5, 150 mM NaCl, 1 mM MgCl2, 10% glycerol, 0.01% Tween-20; T-jump analysis, fit assuming 1:1 binding

MtbPup (prokaryotic ubiquitin-like protein from Mycobacterium tuberculosis, free) (from UniProt P9WHN5 1-64) (natural protein)
pKd: 7.84
